Experimental findings from IntAct's records for PubMed 20181956 are described below.

First the molecules themselves.
B1: Trinucleotide repeat-containing gene 6C protein (Homo sapiens), Q9HCJ0 (parent)
chain: MEEKKKKKQEEKKKKEGAQKKAADQKTKVPEPTKTCSSQPQPAGTSTSTSTSTISSSNNGKRASASGQQPAASRYLPREVPPRFRQQEQKQLLKRGQPLPTGTLTSVSPTQGAGPAGVSPPPLPGAGTQHHPSKLQPDLSHSGLADHYENSHWGQQPTYRSEANCSWDKVIIDRTDKEAWPSITGTETESASECTTDTDSASNCGSENSSMATGSAQGNFTGHTKKTNGNNGTNGALVQSPSNQSALGAGGANSNGSAARVWGVATGSSSGLAHCSVSGGDGKMDTMIGDGRSQNCWGASNSNAGINLNLNPNANPAAWPVLGHEGTVATGNPSSICSPVSAIGQNMGNQNGNPTGTLGAWGNLLPQESTEPQTSTSQNVSFSAQPQNLNTDGPNNTNPMNSSPNPINAMQTNGLPNWGMAVGMGAIIPPHLQGLPGANGSSVSQVSGGSAEGISNSVWGLSPGNPATGNSNSGFSQGNGDTVNSALSAKQNGSSSAVQKEGSGGNAWDSGPPAGPGILAWGRGSGNNGVGNIHSGAWGHPSRSTSNGVNGEWGKPPNQHSNSDINGKGSTGWESPSVTSQNPTVQPGGEHMNSWAKAASSGTTASEGSSDGSGNHNEGSTGREGTGEGRRRDKGIIDQGHIQLPRNDLDPRVLSNTGWGQTPVKQNTAWEFEESPRSERKNDNGTEAWGCAATQASNSGGKNDGSIMNSTNTSSVSGWVNAPPAAVPANTGWGDSNNKAPSGPGVWGDSISSTAVSTAAAAKSGHAWSGAANQEDKSPTWGEPPKPKSQHWGDGQRSNPAWSAGGGDWADSSSVLGHLGDGKKNGSGWDADSNRSGSGWNDTTRSGNSGWGNSTNTKANPGTNWGETLKPGPQQNWASKPQDNNVSNWGGAASVKQTGTGWIGGPVPVKQKDSSEATGWEEPSPPSIRRKMEIDDGTSAWGDPSNYNNKTVNMWDRNNPVIQSSTTTNTTTTTTTTTSNTTHRVETPPPHQAGTQLNRSPLLGPVSSGWGEMPNVHSKTENSWGEPSSPSTLVDNGTAAWGKPPSSGSGWGDHPAEPPVAFGRAGAPVAASALCKPASKSMQEGWGSGGDEMNLSTSQWEDEEGDVWNNAASQESTSSCSSWGNAPKKGLQKGMKTSGKQDEAWIMSRLIKQLTDMGFPREPAEEALKSNNMNLDQAMSALLEKKVDVDKRGLGVTDHNGMAAKPLGCRPPISKESSVDRPTFLDKDGGLVEEPTPSPFLPSPSLKLPLSHSALPSQALGGIASGLGMQNLNSSRQIPSGNLGMFGNSGAAQARTMQQPPQPPVQPLNSSQPSLRAQVPQFLSPQVQAQLLQFAAKNIGLNPALLTSPINPQHMTMLNQLYQLQLAYQRLQIQQQMLQAQRNVSGSMRQQEQQVARTITNLQQQIQQHQRQLAQALLVKQPPPPPPPPHLSLHPSAGKSAMDSFPSHPQTPGLPDLQTKEQQSSPNTFAPYPLAGLNPNMNVNSMDMTGGLSVKDPSQSQSRLPQWTHPNSMDNLPSAASPLEQNPSKHGAIPGGLSIGPPGKSSIDDSYGRYDLIQNSESPASPPVAVPHSWSRAKSDSDKISNGSSINWPPEFHPGVPWKGLQNIDPENDPDVTPGSVPTGPTINTTIQDVNRYLLKSGGSSPPSSQNATLPSSSAWPLSASGYSSSFSSIASAPSVAGKLSDIKSTWSSGPTSHTQASLSHELWKVPRNSTAPTRPPPGLTNPKPSSTWGASPLGWTSSYSSGSAWSTDTSGRTSSWLVLRNLTPQIDGSTLRTLCLQHGPLITFHLNLTQGNAVVRYSSKEEAAKAQKSLHMCVLGNTTILAEFAGEEEVNRFLAQGQALPPTSSWQSSSASSQPRLSAAGSSHGLVRSDAGHWNAPCLGGKGSSELLWGGVPQYSSSLWGPPSADDSRVIGSPTPLTTLLPGDLLSGESL

Variants of B1 are the subject of the first assay. The note with it: with pabp1_human PABPC1, P11940.
Sequence of pabp1_human PABPC1, P11940 (P11940 whole entry): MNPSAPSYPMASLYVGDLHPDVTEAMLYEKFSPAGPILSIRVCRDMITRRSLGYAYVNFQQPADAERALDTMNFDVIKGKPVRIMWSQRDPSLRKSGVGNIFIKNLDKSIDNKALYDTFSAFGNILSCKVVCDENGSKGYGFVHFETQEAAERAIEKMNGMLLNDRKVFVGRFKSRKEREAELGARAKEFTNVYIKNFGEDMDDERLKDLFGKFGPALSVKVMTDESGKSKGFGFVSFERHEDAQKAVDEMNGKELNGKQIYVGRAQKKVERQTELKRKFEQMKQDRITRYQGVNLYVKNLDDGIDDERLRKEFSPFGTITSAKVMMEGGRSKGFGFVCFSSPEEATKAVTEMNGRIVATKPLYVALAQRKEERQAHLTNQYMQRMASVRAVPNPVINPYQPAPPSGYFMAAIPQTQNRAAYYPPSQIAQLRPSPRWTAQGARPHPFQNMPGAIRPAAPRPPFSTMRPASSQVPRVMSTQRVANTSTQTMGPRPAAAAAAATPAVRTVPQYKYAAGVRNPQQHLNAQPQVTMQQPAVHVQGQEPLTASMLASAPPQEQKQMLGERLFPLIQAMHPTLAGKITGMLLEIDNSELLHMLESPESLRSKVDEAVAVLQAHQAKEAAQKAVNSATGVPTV
Turning to P1593A, the “effect of a mutation on the interaction” value is “decreasing interaction”. W1592A: the “effect of a mutation on the interaction” value is recorded as “decreasing interaction”. As for P1601A, the “effect of a mutation on the interaction” value was “decreasing interaction”. Take F1596A: the “effect of a mutation on the interaction” value is recorded as “disrupting interaction”.

The variants in a further assay derive from B1. Particulars: with pabp1_human PABPC1, P11940. The source holds these as a separate data set.
In the case of W1602A, the “effect of a mutation on the interaction” value is recorded as “decreasing interaction”. On the same count and under the same terms, to G1599A belongs “decreasing interaction”.
